Measured values as given in US20090227489A1, “STAT3 Agonists and Antagonists and Therapeutic Uses Thereof” (Johns Hopkins University, priority 2000, published 2009).

Columns and labels:
VEGF [1] = test: Expression of the endogeneous VEGF gene in B16 tumor cells (Western blot); type: cell-based, murine; conditions: ASO at 100 nM, 200 nM, or 300 nM
Procedure: FIG. 13. Inhibition of Stat3 signaling in tumor cells reduces the expression of the endogeneous VEGF gene. B16 tumor cells were transfected with either: A. Stat3β; or B. Stat3 anti-sense oligonucleotides (ASO) at 100 nM, 200 nM, or 300 nM.
A plasmid construct containing the luciferase cDNA in the absence of the VEGF promoter was also transfected into 3T3 fibroblasts. Both of B16 and SCK tumor cells harbor constitutively activated Stat3. In the absence of Stat3β, VEGF promoter activity was readily detectable in both tumor cells as indicated by the high expression levels of luciferase protein. […] The inhibitory effect of Stat3β on the transcriptional activity of the VEGF promoter was also observed in the tumor cells transfected with Stat3 anti-sense oligonucleotides (FIG. 12A-B). It was also shown that blocking Stat3 signaling in tumor cells inhibits the expression of the endogeneous VEGF gene. B16 tumor cells were transiently transfected with Stat3β and the expression of endogeneous VEGF gene was determined at the RNA and protein levels.

TRAIL = test: RNase protection assay with multi-template probes for regulators of apoptosis; type: cell-based, murine; conditions: B16 cells, thirty hours after transfection
Procedure: FIG. 4. Stat3β overexpression in B16 cells results in induction of TRAIL mRNA expression. Ten μg of total cellular RNAs isolated from B16 (lanes 1 and 4), and B16 transfected with either pIRES-EGFP (lanes 2 and 5) or pIRES-Stat3β (lanes 3 and 6) were hybridized with each multiple probe before digestion with RNase. Separation of protected fragments was achieved by gel electrophoresis. Fragment assignment was determined by migration relative to internal standards. Induction of TRAIL RNA was confirmed by two additional RPA analyses.
RNA isolation and RNase protection assay. Total RNA was isolated from 5.0×10^6 cells by TRIzol reagent (Gibco BRL, Grand Island, N.Y.). RNase protection assays (RPA) were carried out using the PharMingen Riboquant mAPO-3 (TRAIL, FasL, CD95, and other death receptor associated genes) and mAPO-2 (Bcl-2 family members) multi-probe templates according to the manufacturer's protocol (PharMingen, San Diego, Calif.). Briefly, the multi-probe template was synthesized by in vitro transcription with incorporation of [^32P]-α UTP and purified on a G50 Sephadex column (5-Prime to 3-Prime, Boulder, Colo.). Specific activity was quantitated in a Beckman LS 6500 scintillation counter (Beckman, Schaumburg, Ill.). […] Protected RNA fragments were separated on a 5% polyacrylamide denaturing gel and quantified with Image Quant software (Molecular Dynamics, Sunnyvale, Calif.). […]

VEGF [2] = test: VEGF expression and Stat3 activity in v-Src-transformed NIH3T3 fibroblasts; type: cell-based
From the text: FIG. 10A-B. Transfection of NIH3T3-Src cells with either: A. Stat3β expression vector; or B. Stat3 anti-sense oligos, results in reduced levels of VEGF protein as shown by Western blot. Src tyrosine kinase-mediated VEGF upregulation requires Stat3. Src tyrosine activity is known to upregulate VEGF expression. In Src-transformed NIH3T3 cells, VEGF expression is high.
Src tyrosine kinase activity upregulates VEGF expression. […] NIH3T3 fibroblasts transformed by v-Src were transiently transfected with a dominant-negative variant of Stat3, Stat3β. The transfection efficiency was approximately 40% based on the number of cells that were fluorescent due to the presence of GFP. […] Forty-eight hours later, VEGF expression in v-Src-NIH3T3 fibroblasts with or without Stat3β expression was compared at both RNA and protein levels. […] Anti-sense oligonucleotides against Stat3 as well as control oligonucleotides were also transfected into v-Src-NIH3T3 cells.

U266 cells = conditions: cited from earlier work
B16 cells = test: Apoptosis assay, Annexin V-PE staining and FACS; type: cell-based, murine; conditions: 48 hours post transfection; empty vector 25%
Procedure: Apoptosis assay. B16 cells transfected with pIRES-EGFP or pIRES-Stat3β were washed with CellScrub™ buffer (Gene Therapy Systems, San Diego, Calif.) 24 h after transfection. Apoptosis of transiently-transfected B16 cells was analyzed after staining with Annexin V-PE by two-color flow cytometry. Apoptosis of non-transfected tumor cells in the upper chambers of Transwell units was analyzed after staining with Annexin V-PE and VIA-PROBE™ 7-AAD (Pharmingen, San Diego, Calif.) by two-color flow cytometry.
This G0/G1 phase arrest was observed as early as 24 hourspost transfection. At 48 hours post transfection with Stat3β vector, Annexin V-PE staining followed by FACS analysis to detect apoptotic activity was performed with transfected B16 cells. A high level of apoptosis in Stat3β transfected cells (75%) relative to empty vector transfected cells (25%) was observed, as shown in FIG. 2C. Increased levels of apoptosis as a result of Stat3β transfection was confirmed by confocal laser scanning microscope analysis using rhodamine-labelled TUNEL assay.

B16 tumors = test: Stat3β gene therapy of established B16 tumors in mice; type: in vivo; conditions: for tumor growth: ten to fifteen percent of tumor cells transfected in vivo
Procedure: Mice. Six- to eight-week old female C57/B6 mice were obtained from the National Cancer Institute (Frederick, Md.). Cohorts of 3-5 mice per group were used for these experiments. To induce tumor, mice were shaved on the left flank and injected s.c. with 5×10^5 of B16 cells in 100 μl of PBS. Gene therapy with Stat3β of established B16 tumors was described previously [Niu, 1999 #72].
Antibody staining of iNOS in B16 tumors. 3 μm paraffin sections were deparaffinized and endogenous peroxidase was blocked with 3% aqueous hydrogen peroxide. To minimize non-specific binding, the sections were incubated for 20 min in normal goat serum in PBS, followed by overnight incubation at 4° C. with rabbit anti-iNOS polyclonal antibody (Transduction Laboratories). After washing with PBS, sections were incubated for 2 min with diaminobenzidine tetrahydrochloride, rinsed with tap water and counterstained with modified Mayer's hematoxylin. Sections were dehydrated, cleared and mounted. Peritoneal macrophages and neutrophils.
Tissue sections from control vector-treated and Stat3β-treated tumors were stained with H&E and anti-iNOS antibodies.

B1: Stat3β: dominant-negative Stat3 variant, truncated form lacking the transactivation domain; delivered by the pIRES-Stat3β expression vector (protein)
chain: AQWNQLQQLDTRYLEQLHQLYSDSFPMELRQFLAPWIESQDWAYAASKESHATLVFHNLLGEIDQQYSRFLQESNVLYQHNLRRIKQFLQSRYLEKPMEIARIVARCLWEESRLLQTAATAAQQGGQANHPTAAVVTEKQQMLEQHLQDVRKRVQDLEQKMKVVENLQDDFDFNYKTLKSQGDMQDLNGNNQSVTRQKMQQLEQMLTALDQMRRSIVSELAGLLSAMEYVQKTLTDEELADWKRRQQIACIGGPPNICLDRLENWITSLAESQLQTRQQIKKLEELQQKVSYKGDPIVQHRPMLEERIVELFRNLMKSAFVVERQPCMPMHPDRPLVIKTGVQFTTKVRLLVKFPELNYQLKIKVCIDKDSGDVAALRGSRKFNILGTNTKVMNMEESNNGSLSAEFKHLTLREQRCGNGGRANCDASLIVTEELHLITFETEVYHQGLKIDLETHSLPVVVISNICQMPNAWASILWYNMLTNNPKNVNFFTKPPIGTWDQVAEVLSWQFSSTTKRGLSIEQLTTLAEKLLGPGVNYSGCQITWAKFCKENMAGKGFSFWVWLDNIIDLVKKYILALWNEGYIMGFISKERERAILSTKPPGTFLLRFSESSKEGGVTFTWVEKDISGKTQIQSVEPYTKQQLNNMSFAEIIMGYKIMDATNILVSPLVYLYPDIPKEEAFGKYCRPESQEHPEADPGAAPYLKTKFICVTFIDAVWK
expression of the endogeneous VEGF gene (VEGF [1]): downregulates expression of the endogeneous VEGF gene | TRAIL RNA expression (TRAIL): induction of TRAIL RNA expression | Stat3 DNA binding activity (EMSA) (VEGF [2]; v-Src NIH3T3): loss of Stat3 DNA binding activity | VEGF expression (VEGF [2]; v-Src NIH3T3, forty-eight hours): inhibits VEGF | expression of the Bcl-XL gene (U266 cells): down-regulated expression of the Stat3-regulated Bcl-XL gene | sensitization to Fas-mediated apoptosis (U266 cells; in vitro): dramatic sensitization of cells to Fas-mediated apoptosis | level of apoptosis (B16 cells): 75% | apoptosis of tumor cells in vivo (B16 tumors; B16 tumors): massive apoptosis of B16 tumor cells | tumor growth (B16 tumors; B16 tumors): complete regression of tumors | tumor growth (B16 tumors; B16 tumors, listed as Stat30): inhibition of tumor growth and tumor regression | infiltration of inflammatory cells (neutrophils, macrophages, T cells) (B16 tumors; H&E staining, vs control vector-treated tumors): dramatic increase in number of inflammatory cells | iNOS expression in tumor-infiltrating macrophages (B16 tumors; anti-iNOS antibody staining): induction of iNOS gene expression in the tumor-infiltrating macrophages
